Numbering of substitutions follows the chain as printed. Read-outs that look alike come from different tables or passages of the source.

The values below come from patent publication US20260356969 (published 2026).

In assay [1] the target is T1, CD26 (human, UniProt P27487). Nature of the assay: BLI.
Assay [2] concerns the target T1, CD26. The assay can be described thus: BLI. The source holds these as a separate data set. Background: BLI is a label-free optical method that tracks binding on a fibre tip over time.
Assay [3] addresses 23G645 CD26 fragment 498-766 (human). The assay can be described thus: FACS.
Assay [4] concerns the target 21G583 CD26 fragment 29-300 (human). Nature of the assay: FACS. (A flow cytometer gives signals particle by particle.)
The target in assay [5] is 21G584 CD26 fragment 29-237 (human). The assay can be described thus: FACS.
Assay [6] concerns the target 21G585 CD26 fragment 29-182 (human). The assay can be described thus: FACS.

T1 sequence (P27487 29-766): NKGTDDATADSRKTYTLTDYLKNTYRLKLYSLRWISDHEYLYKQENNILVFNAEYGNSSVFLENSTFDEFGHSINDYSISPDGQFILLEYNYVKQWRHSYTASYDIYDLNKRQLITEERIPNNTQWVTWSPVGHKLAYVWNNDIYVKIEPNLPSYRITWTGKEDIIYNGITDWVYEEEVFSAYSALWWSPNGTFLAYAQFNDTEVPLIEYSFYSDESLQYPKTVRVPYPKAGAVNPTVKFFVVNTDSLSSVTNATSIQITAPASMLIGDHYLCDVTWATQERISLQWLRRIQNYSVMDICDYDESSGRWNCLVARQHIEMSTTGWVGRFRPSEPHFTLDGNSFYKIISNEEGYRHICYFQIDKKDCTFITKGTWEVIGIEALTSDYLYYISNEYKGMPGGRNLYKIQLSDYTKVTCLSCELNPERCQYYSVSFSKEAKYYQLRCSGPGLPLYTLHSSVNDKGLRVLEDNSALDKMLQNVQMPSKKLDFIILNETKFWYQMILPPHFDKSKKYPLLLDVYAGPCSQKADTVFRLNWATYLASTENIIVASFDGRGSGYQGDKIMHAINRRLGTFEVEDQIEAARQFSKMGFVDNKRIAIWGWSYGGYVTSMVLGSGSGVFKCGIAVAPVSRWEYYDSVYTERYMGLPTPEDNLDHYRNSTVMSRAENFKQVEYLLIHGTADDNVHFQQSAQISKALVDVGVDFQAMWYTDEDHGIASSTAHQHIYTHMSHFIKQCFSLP
Chain of 21G583 CD26 fragment 29-300 (human) (chain, as listed by the source): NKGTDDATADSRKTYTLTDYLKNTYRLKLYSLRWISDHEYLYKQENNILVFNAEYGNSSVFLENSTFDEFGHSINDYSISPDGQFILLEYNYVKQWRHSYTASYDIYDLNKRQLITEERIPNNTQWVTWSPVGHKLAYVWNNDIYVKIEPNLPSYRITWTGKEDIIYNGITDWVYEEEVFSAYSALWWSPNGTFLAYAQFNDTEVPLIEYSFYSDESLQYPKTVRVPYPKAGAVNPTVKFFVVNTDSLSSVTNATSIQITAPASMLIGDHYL
Chain of 21G584 CD26 fragment 29-237 (human) (chain, as listed by the source): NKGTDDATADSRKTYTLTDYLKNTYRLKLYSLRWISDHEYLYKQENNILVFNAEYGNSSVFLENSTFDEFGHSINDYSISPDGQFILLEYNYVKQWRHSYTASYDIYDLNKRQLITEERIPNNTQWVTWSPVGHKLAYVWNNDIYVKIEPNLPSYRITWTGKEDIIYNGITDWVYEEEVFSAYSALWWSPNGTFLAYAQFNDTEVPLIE
Chain of 21G585 CD26 fragment 29-182 (human) (chain, as listed by the source): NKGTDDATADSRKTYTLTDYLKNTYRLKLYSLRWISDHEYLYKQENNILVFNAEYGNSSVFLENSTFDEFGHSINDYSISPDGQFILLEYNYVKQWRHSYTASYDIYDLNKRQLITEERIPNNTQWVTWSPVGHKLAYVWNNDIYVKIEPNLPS
Chain of 23G645 CD26 fragment 498-766 (human) (chain, as listed by the source): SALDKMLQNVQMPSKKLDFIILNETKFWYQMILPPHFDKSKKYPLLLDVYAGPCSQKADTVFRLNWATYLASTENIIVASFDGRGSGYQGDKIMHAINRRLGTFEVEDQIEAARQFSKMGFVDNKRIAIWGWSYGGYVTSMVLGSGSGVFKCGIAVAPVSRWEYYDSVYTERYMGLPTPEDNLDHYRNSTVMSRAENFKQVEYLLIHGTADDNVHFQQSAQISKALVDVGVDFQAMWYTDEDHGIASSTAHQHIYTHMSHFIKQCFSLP

B1: 17G61 (CD26 arm) (antibody)
chain: DIVMTQAAPSVSVTPGESVSISCRSDKSLLHSNGNTYLYWFLQRPGQSPQVLIYRMSNLASGVPDRFSGSGSGTGFTLRVSRVEAEDVGVYYCFQQLEYPYTFGGGTKLEIKGGGGSGGGGSGGGGSEVQLQQSGAELVKPGASVKLSCTASGFNIKDTYIYWVKQRPGQGLEWIGRIEPMNGNTKYDPKFQGKATMTANTSSNTAYLHLSSLASEDTAVYFCSRGGWLLLYVMDYWGQGTSVTVSS
Take B1: in the assay with CD26 [1], the Kd – broadly, the equilibrium constant for the complex coming apart – turned out to be 17.3 nM. That is a double-digit nanomolar value.

B2: 19G297 (CD26 arm) (antibody, V domains shown)
VH: EVQLQESGPGLVKPSGTLSLTCAVSGDSITSGYWHWIRQAPGKGLEWVGYINYSGYTYYNPSLKSRFTISRDTSKNQYYLQLNSVTAEDTAVYYCTSERNWGAFAYWGQGTLVTVSS
VL: ENVLTQSPASLSASPGERVTITCRASSSVISTYLHWYQQKPGQAPKLWIYSTSNLASGVPARFSGSGSGTDYTLTISSVEPEDFATYYCQQFSGYPYTFGQGTKLEIK
In the case of B2, the Kd with CD26 [2] was 4.4 nM. That is a single-digit nanomolar value.

B3: 19G296 (CD26 arm) (antibody, V domains shown)
VH: B2 VH with E1Q, G16E, A23T, A40P, V48I
VL: B2 VL with S10T, V19A, I21L, T22S, T86V
B3 returned a Kd with CD26 [2] of 14.8 nM.

B4: 21G428-429 (antibody, V domains shown)
VH: EVQLVQSGAELVKPGASVKLSCAASGFNIKDTYIYWVRQAPGQGLEWVGRIEPMNGNTKYDPKFQGRFTMTANTSKNTAYLQLSSLRSEDTAVYYCSRGGWLLLYVMDYWGQGTLVTVSS
VL: DIVMTQSPSSLSVTPGERVSISCRSDKSLLHSNGNTYLYWFLQKPGQSPQVLIYRMSNLASGVPDRFSGSGSGTDFTLTISRVEAEDVGVYYCFQQLEYPYTFGQGTKLEIKR
On to B4, for which the binding result in assay [3], in assay [4], in assay [5] and in assay [6] was “no binding” in each case.

B5: 21G587 (CD26 arm) (antibody, V domains shown)
VH: B4 VH
VL: DIVMTQSPSSLSVTPGERVSISCRSDKSLLHSNGNTYLYWFLQKPGQSPQVLIYRMSNLASGVPDRFSGSGSGTDFTLTISRVEAEDVGVYYCFQQLEYPYTFGQGTKLEIK
In the assay with CD26 [2], B5 displayed a Kd of 0.352 nM.

B6: 19G293 (CD26 arm) (antibody, V domains shown)
VH: B4 VH with E1Q, A23K, V48I, F68V, K76I, Q82E
VL: B5 VL with S9L, R18P, V19A, T79K
In the assay with CD26 [2], B6 returned a Kd of less than 0.001 nM.

B7: 19G294 (CD26 arm) (antibody, V domains shown)
VH: B4 VH
VL: B5 VL
B7: in the assay with CD26 [2], binding was put at a Kd of 0.914 nM. This counts as sub-nanomolar.

B8: 17G29 (CD26 arm, YS110) (antibody, V domains shown)
VH: EVQLVESGAGVKQPGGTLRLTCTASGFSLTTYGVHWVRQAPGKGLEWVGVIWGDGRTDYDAAFMSRVTISKDTSKSTVYLQMNSLRAEDTAVYYCMRNRHDWFDYWGQGTTVTVSS
VL: DILLTQSPSSLSATPGERATITCRASQGIRNNLNWYQQKPGQAPRLLIYYSSNLQSGVPSRFSGSGSGTDFTLTISRLQPEDVAAYYCQQSIKLPFTFGSGTKVEIK
With B8, the Kd with CD26 [2] is 1.18 nM.

B9: 19G292 (CD26 arm) (antibody, V domains shown)
VH: QVQLLQSGAEVVKPGASVKISCKASGFNIKDTYIYWVKQPTGQGLEWIGRIEPMNGNTKYDPKFQGRFTMTANTSINTAYLQLSSLTSEDTAVYYCSRGGWLLLYVMDYWGQGTTVTVSS
VL: B5 VL with P8A, S12P, R18S, K44R, D75E, Q105P
B9 yielded a Kd in the assay with CD26 [2] of less than 0.001 nM.

B10: 17G105 (CD26 arm) (antibody)
chain: DIVLTQSPASLAVSLGQRATISCRASESVEYYGTSLMQWYQQKPGQPPKLLIYTASNVESGVPVRFSGSGSGTDFSLNIHPVEEDDIAMYFCQQSRKVPYTFGGGTKLEIKGGGGSGGGGSGGGGSQVQLQQSGPELMKPGASVKISCKATGYSFSGFWIEWVKQRPGHGLEWIGEILPGSGASNYHENFKGRATITADTSANTAYMQLRSLTSEDSAVYYCARERYYGSKYFDVWGAGTTVTVSS
For B10, in the assay with CD26 [1], the equilibrium dissociation constant (Kd) is 39.3 nM.
